US20250027068

Each protein was assayed against pooled human IgG (human IgG1,2,3 and 4).

Protein | Enzyme Activity Endpoint Assay: Fab′2 | Enzyme Activity Endpoint Assay: Fc | Enzyme Activity Endpoint Assay: IgG | Enzyme Activity Endpoint Assay: scIgG | Enzyme Activity Endpoint Assay (purified): Fab'2 | Enzyme Activity Endpoint Assay (purified): Fc | Enzyme Activity Endpoint Assay (purified): IgG | Enzyme Activity Endpoint Assay (purified): scIgG
PRT-309 (protein) MQITSVWTKGVTPLTPEQFRENNEDVIHAPYLAHQGWYDITKAFDGKDNLLCGAATAGNMLHWWFDQNKTEIEAYLSKHPEKQKIIFGNQELFDLKAAIDTKDSQTNSQLFDYFRDKAFPNLSARQLGVMPDLVLDMFINGYYLNVGKTQSTDVNRPYQDKDKRGGIFDAVFTRGDQTTLLTARHDLKNKGLNDISTIIKQELTEGRALALSHTYANVSISHVINLWGADFDAEGNLEAIYVTDSDANASIGMKKYFVGRNAHGHVAISAKKIEGENIGAQVLGLFTLSSGKDQWQKLS | 0 ng/µL | 0 ng/µL | 1650 ng/µL | 0 ng/µL |  |  |  | 
PRT-310 (protein) MQITSVWTKGVTPLTPEQFRENNEDVIHAPYLAHQGWYDITKAFDGKDNLLCGAATAGNMLHWWFDQNKTEIEAYLSKHPEKQKIIFNNQELFDLKAAIDTKDSQTNSQLFDYFRDKAFPNLSARQLGVMPDLVLDMFINGYYLNVFKTQSTDVNRPYQDKDKRGGIFDAVFTRGDQTTLLTARHDLKNKGLNDISTIIKQELTEGRALALSHTYANVSISHVINLWGADFDAEGNLEAIYVTDSDANASIGMKKYFVGRNAHGHVAISAKKIEGENIGAQVLGLFTLSSGKDQWQKLS |  |  |  |  | 1220 ng/µL | 488 ng/µL | 0 ng/µL | 0 ng/µL
PRT-316 (protein) MTITSVWTKGVTPPTPEDFRKNNEDVLHAPYVANQGWYDITKTFDGKDNLLCGAATAGNMLHWWFDQNKEEIERYLKKHPEKQKIIFNNQELFDVKAAIDTKDSQTNSKLFNYFRDKAFPNLSARQLGVMPDLVLDMFINGYYLNLGKTQSTDVNRPYQDKDKRGGIFDAVFTRGDQTTLLTARHDLKNKGLNEISDLIKQELTEGKALALSHTYANVRINHVINLWGADFDAEGNLIAIYVTDSDANASIGMKKYFVGRNANGKVAISAKKIEGDNIGAQVLGLFTLSTGQDIWQKLS | 772 ng/µL | 347 ng/µL | 80 ng/µL | 0 ng/µL |  |  |  | 
PRT-326 (protein) MTITSVWTKGVTPPTPEDFRENNEDVLHAPYVANQGWYDITKTFDGKDNLLCGAATAGNMLHWWFDQNKEEIERYLKKHPEKQKIIFGNQELFDVKAAIDTKDSQTNSKLFDYFRDKAFPNLSARQLGVMPDLVLDMFINGYYLNLGKTQSTDVNRPYQDKDKRGGIFDAVFTRGDQTTLLTARHDLKNKGLNEISDLIKQELTEGKALALSHTYANVRINHVINLWGADFDAEGELIAIYVTDSDANPSIGMKKYFVGRNANGKVAISAKKIEGDNIGAQVLGLFTLSTGQDQWQKLS |  |  |  |  | 588 ng/µL | 429 ng/µL | 458 ng/µL | 0 ng/µL
PRT-333 (protein) MTITSVWTKGVTPPTPEDFRENNEDVLHAPYVANQGWYDITKTFDGKDNLLCGAATAGNMLHWWFDQNKEEIERYLKKHPEKQKIIFGNQELFDVKAAIDTKDSQTNSKLFNYFRDKAFPGLSARQLGVFPDLVLDMFINGYYLNLGKTQSTDVNRPYQDKDKRGGIFDAVFTRGVQTTLLTARHDLKNKGLNEISDLIKQELTEGKALALSHTYANVRINHVINLWGADFDAEGNLIAIYVTDSDANPSIGMKKYFVGRNANGKVAISAKKIEGDNIGAQVLGLFTLSTGQDIWQKLS |  |  |  |  | 794 ng/µL | 448 ng/µL | 0 ng/µL | 0 ng/µL
PRT-325 (protein) MTITSVWTKGVTPPTPEDFRENNEDVLHAPYVANQGWYDITKTFDGKDNLLCGAATAGNMLHWWFDQNKEEIERYLKKHPEKQKIIFGNQELFDVKAAIDTKDSQTNSKLFDYFRDKAFPNLSARQLGVMPDLVLDMFINGYYLNLGKTQSTDVNRPYQDKDKRGGIFDAVFTRGDQTTLLTARHDLKNKGLNEISDLIKQELTEGKALALSHTYANVRINHVINLWGADFDAEGELIAIYVTDSDANPSIGMKKYFVGRNANGKVAISAKKIEGDNIGAQVLGLFTLSTGQDIWQKLS |  |  |  |  | 930 ng/µL | 466 ng/µL | 78 ng/µL | 0 ng/µL
PRT-332 (protein) MTITSVWTKGVTPPTPEDFRENNEDVLHAPYVANQGWYDITKTFDGKDNLLCGAATAGNMLHWWFDQNKEEIERYLKKHPEKQKIIFNNQEWFDVKAAIDTKDSQTNSKLFNYFRDKAFPGLSARQLGVFPDLVLDMFINGYYLNLPKTQSTDVNRPYQDKDKRGGIFDAVFTRGVQTTLLTARHDLKNKGLNEISDLIKQELTEGKALALSHTYANVRINHVINLWGADFDAEGNLIAIYVTDSDANASIGMKKYAVGVNANGKVAISAKKIEGDNIGAQVLGLFTLSTGQDIWQKLS | 409 ng/µL | 277 ng/µL | 0 ng/µL | 177 ng/µL |  |  |  | 
PRT-317 (protein) MTITSVWTKGVTPPTPEDFRENNEDVLHAPYVANQGWYDITKTFDGKDNLLCGAATAGNMLHWWFDQNKEEIERYLKKHPEKQKIIFNNQELFDVKAAIDTKDSQTNSKLFNYFRDKAFPNLSARQLGVMPDLVLDMFINGYYLNLGKTQSTDVNRPYQDKDKRGGIFDAVFTRGDQTTLLTARHDLKNKGLNEISDLIKQELTEGKALALSHTYANVRINHVINLWGADFDAEGNLIAIYVTDSDANASIGMKKYFVGRNANGKVAISAKKIEGDNIGAQVLGLFTLSLGQDIWQKLS | 798 ng/µL | 453 ng/µL | 0 ng/µL | 0 ng/µL |  |  |  | 
PRT-324 (protein) MTITSVWTKGVTPPTPEDFRENNEDVLHAPYVANQGWYDITKTFDGKDNLLCGAATAGNMLHWWFDQNKEEIERYLKKHPEKQKIIFGNQELFDVKAAIDTKDSQTNSKLFNYFRDKAFPNLSARQLGVMPDLVLDMFINGYYLNLGKTQSTDVNRPYQDKDKRGGIFDAVFTRGDQTTLLTARHDLKNKGLNEISDLIKQELTEGKALALSHTYANVRINHVINLWGADFDAEGNLIAIYVTDSDANPSIGMKKYFVGRNANGKVAISAKKIEGDNIGAQVLGLFTLSTGQDIWQKLS | 665 ng/µL | 291 ng/µL | 0 ng/µL | 0 ng/µL |  |  |  | 
PRT-318 (protein) MTITSVWTKGVTPPTPEDFRYNNEDVLHAPYVANQGWYDITKTFDGKDNLLCGAATAGNMLHWWFDQNKEEIERYLKKHPEKQKIIFNNQEWFDVKAAIDTKDSQTNSKLFDYFRDKAFPNLSARQLGVMPDLVLDMFINGYYLNLGKTQSTDVNRPYQDKDKRGGIFDAVFTRGDQTTLLTARHDLKNKGLNEISDLIKQELTEGKALALSHTYANVRINHVINLWGADFDAEGNLIAIYVTDSDANASIGMKKYFVGVNANGKVAISAKKIEGDNIGAQVLGLFTLSLGQDIWQKLS |  |  |  |  | 641 ng/µL | 365 ng/µL | 110 ng/µL | 100 ng/µL
PRT-293 (protein) MVTSVWTKGVTPPADFTQGEDVFHAPYVANQGWYDITKTFNGKDDLLCGAATAGNMLHWWFDQNKEYIEAYLKKHPEKQKIMFGDQELLDVRKAINTKGSQKNSELFNYFRDKAFPNLSARRLGVMPDLVLDMFINGYYLNVTKTQTTDVNRTYQEKDKRGGIFDAVFTRGDQSKLLTSRHDFKEKGLKEISDLIKQELTEGKALGLSHTYANVRLNHVINLWGADFDSDGNLKAIYVTDSDSNASIGMKKYGVGVNSAGKVAISAKEIKEDNIGAQVLGLFTLSTGQDIWNQTN | 11 ng/µL | 0 ng/µL | 1260 ng/µL | 0 ng/µL |  |  |  | 
PRT-301 (protein) MVTSVWTKGVTPPTDFIKGEDVFHAPYDAGQGWYDITKTFNGKDDLLCGAATAGNMLHWWFDQNKEYIEAYLKKHPEKQKIMFGDQELLDVRKAINTKGSQKNSELFNYFRDKAFPNLSARRLGVMPDLVLDMFINGYYLNVTKTQTTDVNRTYQEKDKRGGIFDAVFTRGDQSKLLTSRHDFKEKGLKEISDLIKQELTEGKALGLSHTYANVRISHVINLWGADFDSDGNLKAIYVTDSDSNASIGMKKYFVGVNSAGKVAISAKEIKEDNIGAQVLGLFTLSTGQDIWNQTN | 0 ng/µL | 0 ng/µL | 1680 ng/µL | 0 ng/µL |  |  |  | 
PRT-302 (protein) MVTSVWTKGVTPPTDFIKGEDVFHAPYKAGQGWYDITKTFNGKDDLLCGAATAGNMLHWWFDQNKEYIEAYLKKHPEKQKIMFGDQELLDVRKAINTKGSQKNSELFNYFRDKAFPNLSARRLGVMPDLVLDMFINGYYLNVTKTQTTDVNRTYQEKDKRGGIFDAVFTRGDQSKLLTSRHDFKEKGLKEISDLIKQELTEGKALGLSHTYANVRLNHVINLWGADFDSDGNLKAIYVTDSDSNASIGMKKYGVGVNSAGKVAISAKEIKEDNIGAQVLGLFTLSTGQDIWNQTN |  |  |  |  | 1130 ng/µL | 461 ng/µL | 0 ng/µL | 0 ng/µL
PRT-294 (protein) MVTSVWTKGVTPPADFTQGEDVFHAPYDANQGWYDITKTFNGKDDLLCGAATAGNMLHWWFDQNKEYIEAYLKKHPEKQKIMFGDQELLDVRKAINTKGSQKNSELFNYFRDKAFPNLSARRLGVMPDLVLDMFINGYYLNVTKTQTTDVNRTYQEKDKRGGIFDAVFTRGDQSKLLTSRHDFKEKGLKEISDLIKQELTEGKALGLSHTYANVRISHVINLWGADFDSDGNLKAIYVTDSDSNASIGMKKYGVGVNSAGKVAISAKEIKEDNIGAQVLGLFTLSTGQDIWNQTN |  |  |  |  | 651 ng/µL | 456 ng/µL | 506 ng/µL | 5 ng/µL
